From article PMC7005279, “Cryo-EM study of an archaeal 30S initiation complex gives insights into evolution of translation initiation” (Communications Biology, 2020)

Columns and labels:
[1] = biological target: ribosomal protein uS11 of the Pyrococcus abyssi 30S subunit (P. abyssi, UniProt P62010 1-137); experiment: cryo-EM structure; IC2 complex (Pa-30S:mRNA:aIF1A:aIF2:GDPNP:Met-tRNAi) purified on TALON by N-terminally tagged aIF2β and aIF2α; overall 3.2 Å, classes IC2A 4.2 Å and IC2B 3.3 Å; aIF1A and aIF2 placed by rigid body fitting; conditions: both partners purified
[2] = biological target: T1, ribosomal protein uS9 of the Pyrococcus abyssi 30S subunit (P. abyssi, UniProt Q9V195 1-135); experiment: as above; conditions: both partners purified
T1 construct: 30S ribosomal protein uS9 (S9), Pyrococcus abyssi; its C-terminal residue is printed as R135; Subunit of the native 30S; source: endogenous, in 30S subunits purified from P. abyssi
T1 sequence (Q9V195 whole entry): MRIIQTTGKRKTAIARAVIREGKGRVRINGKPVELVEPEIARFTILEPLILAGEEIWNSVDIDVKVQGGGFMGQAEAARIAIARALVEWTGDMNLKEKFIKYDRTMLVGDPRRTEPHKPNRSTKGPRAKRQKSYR

| binding result [1] | binding result [2] | Binder |
| --- | --- | --- |
| binds |  | ribosomal protein uS7 of the Pyrococcus abyssi 30S subunit (natural protein, Subunit of the native 30S; source: endogenous, in 30S subunits purified from P. abyssi) not shown |
|  | binds | ribosomal protein uS19 of the Pyrococcus abyssi 30S subunit (natural protein, 30S ribosomal protein uS19 (S19), Pyrococcus abyssi; Subunit of the native 30S; source: endogenous, in 30S subunits purified from P. abyssi) not shown |
